In publication doi:10.1101/2021.04.08.21254942 one finds Kd data, which are given here for one substance.

The assay deals with TAMRA-labeled M9-NLS of hnRNPA2 WT peptide (human). Description: fluorescence polarisation.

Turning to “Karyopherin-β2 WT (from UniProt Q92973 1-898) (receptor)”, the dissociation constant (Kd) was determined as 95 nM.

A word on the Kd: it is the concentration at which binding is half-saturated.
